According to article PMC6065357, “Structural insights into SorCS2–Nerve Growth Factor complex formation” (Nature Communications, 2018):

B1: mouse SorCS2 mature extracellular segment (sSorCS2, residues 117-1072) (receptor)
chain: not shown
notes: SorCS2, mouse, residues 117-1072: the mature extracellular segment, without signal peptide and pro-peptide; Expressed from pUPE107.03 with a cystatin secretion signal peptide; For the unliganded crystal the protein was deglycosylated with EndoHf and treated with trypsin (limited proteolysis); also called SorCS2 ectodomain; wt sSorCS2; source: HEK293-ES (GnTI-) or HEK293-E, secreted, purified …
B2: pro-brain-derived neurotrophic factor (proBDNF, residues 19-249, furin sites changed to AA) (ligand)
chain: APMKEVNVHGQGNLAYPGVRTHGTLESVNGPRAGSRGLTTTSLADTFEHVIEELLDEDQKVRPNEENHKDADLYTSRVMLSSQVPLEPPLLFLLEEYKNYLDAANMSMRVAAHSDPARRGELSVCDSISEWVTAADKKTAVDMSGGTVTVLEKVPVSKGQLKQYFYETKCNPMGYTKEGCRGIDKRHWNSQCRTTQSYVRALTMDSKKRIGWRFIRIDTSCVCTLTIKRGR

Key:
[1] = molecular target: the molecule itself; experiment: crystal structure; sSorCS2 mixed with proNGF 1:1.1, 1 mM calcium chloride; proNGF degraded to NGF in the drop; 0.225 M MES/bis-tris pH 6.6; 3.9 Å
[2] = molecular target: B1; experiment: SPR; IBIS MX96; NGF, proNGF and proBDNF amine-coupled to a P-COOH SensEye sensor; wt and mutant sSorCS2 flowed as analyte; 25 mM HEPES pH 7.4, 150 mM NaCl, 0.005 % Tween 20; 25 °C; equilibrium binding, one site saturation model (two site saturation model for proBDNF); settings: both partners purified

B1
stoichiometry N [1]: 2

B2
Kd [2]: 69 nM
